The record followed here is US20220153863A1 (published 2022).

T1: PRAME peptide, amino acids Arg310-Asn331 of PRAME, conjugated to biotin or BSA (UniProt P78395 310-331, conjugated to either biotin or bovine serum albumin (BSA); site not stated)
T1 construct: range 310-331
T1 peptide (looked up): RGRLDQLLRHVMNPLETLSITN

B1: B029_1A6 scFv displayed on phage (monoclonal phage clone) (scFv, V domains shown)
VH: EVQLLESGGGLVQPGGSLRLSCAASGFTFSNYAMSWVRQAPGKGLEWVSAISGSGGSTYYADSVKGRFTISRDNSKNTLYLQMNSLRAEDTAVYYCARGGLVLSPWGQGTLVTVSS
VL: EIVLTQSPGTLSLSPGERATLSCRASQSVSSNSLAWYQQKPGQAPRLLIYDASSRATGIPDRFSGSGSGTDFTLTISRLEPEDFAVYYCQQYESSPLTFGQGTKVEIK
B2: B029_2H1 scFv displayed on phage (monoclonal phage clone) (scFv, V domains shown)
VH: EVQLLESGGGLVQPGGSLRLSCAASGFTFTDYAMSWVRQAPGKGLEWVSWISGSGGSTKYADSVKGRFTISRDNSKNTLYLQMNSLRAEDTAVYYCAKCYDILTGYSIDYGMDVWGQGTTVTVSS
VL: B1 VL with N32T, S33Y, D51G, E93S, S95A, L97F
B3: B029_2D4 scFv displayed on phage (monoclonal phage clone) (scFv, V domains shown)
VH: EVQLLESGGGLVQPGGSLRLSCAASGFTFSSYAMSWVRQAPGKGLEWVSAISGSGDSTYYADSVKGRFTISRDNSKNTLYLQMNSLRAEDTAVYYCARDVDSFEGGMDVWGQGTTVTVSS
VL: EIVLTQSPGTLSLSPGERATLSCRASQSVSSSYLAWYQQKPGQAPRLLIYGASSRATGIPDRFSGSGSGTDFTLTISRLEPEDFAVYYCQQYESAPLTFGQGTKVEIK
B4: B029_1H1 scFv displayed on phage (monoclonal phage clone) (scFv, V domains shown)
VH: EVQLLESGGGLVQPGGSLRLSCAASGFTFSSYAMSWVRQAPGKGLEWVSEIDGEGDSTKYADSVKGRFTISRDNSKNTLYLQMNSLRAEDTAVYYCAKEYYDIFDGTDVWGQGTTVTVSS
VL: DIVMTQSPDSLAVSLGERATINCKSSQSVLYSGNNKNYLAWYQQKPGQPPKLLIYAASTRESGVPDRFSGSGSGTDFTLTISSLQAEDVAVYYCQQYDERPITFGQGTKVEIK
B5: B029_1G7 scFv displayed on phage (monoclonal phage clone) (scFv, V domains shown)
VH: EVQLLESGGGLVQPGGSLRLSCAASGFTFTDSAMSWVRQAPGKGLEWVSDIDGSGSGGGTYYADSVKGRFTISRDNSKNTLYLQMNSLRAEDTAVYYCATDRGWGTFDFWGQGTLVTVSS
VL: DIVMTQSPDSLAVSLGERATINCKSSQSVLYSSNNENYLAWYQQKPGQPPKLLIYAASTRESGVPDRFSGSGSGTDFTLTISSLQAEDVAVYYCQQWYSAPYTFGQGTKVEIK
B6: B029_1A7 scFv displayed on phage (monoclonal phage clone) (scFv, V domains shown)
VH: EVQLLESGGGLVQPGGSLRLSCAASGFTFSSYWMSWVRQAPGKGLEWVSDISGSGGSTYYADSVKGRFTISRDNSKNTLYLQMNSLRAEDTAVYYCASLPDSSGYYHWFDPWGQGTLVTVSS
VL: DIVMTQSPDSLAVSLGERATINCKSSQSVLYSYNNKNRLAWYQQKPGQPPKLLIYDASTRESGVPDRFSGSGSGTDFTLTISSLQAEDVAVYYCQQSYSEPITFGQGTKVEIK
B7: B029_1A7 full-length human IgG1 (antibody, V domains shown)
VH: B6 VH
VL: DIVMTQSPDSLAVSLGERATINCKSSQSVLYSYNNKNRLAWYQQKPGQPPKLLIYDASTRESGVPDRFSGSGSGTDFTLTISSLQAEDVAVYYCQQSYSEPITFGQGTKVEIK

Residue numbers refer to the chain shown, from its start.

T2 sequence (P78395 whole entry): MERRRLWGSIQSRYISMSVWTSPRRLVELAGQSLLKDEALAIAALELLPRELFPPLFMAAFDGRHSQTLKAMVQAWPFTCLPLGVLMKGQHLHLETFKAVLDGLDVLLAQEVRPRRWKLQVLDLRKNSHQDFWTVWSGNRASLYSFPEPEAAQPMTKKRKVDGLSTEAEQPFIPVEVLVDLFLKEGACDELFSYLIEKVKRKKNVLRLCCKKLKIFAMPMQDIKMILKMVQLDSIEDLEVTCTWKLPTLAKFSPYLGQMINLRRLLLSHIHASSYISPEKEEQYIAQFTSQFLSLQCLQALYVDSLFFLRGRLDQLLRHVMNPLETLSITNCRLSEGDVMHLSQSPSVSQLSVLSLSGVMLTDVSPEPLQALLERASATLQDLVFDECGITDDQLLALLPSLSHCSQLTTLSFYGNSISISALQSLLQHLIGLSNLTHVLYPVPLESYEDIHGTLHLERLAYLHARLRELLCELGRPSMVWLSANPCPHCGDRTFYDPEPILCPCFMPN

For the first experiment, the target named is T1, PRAME peptide, amino acids …. Put plainly: ELISA with monoclonal phage supernatants. The text has this: 184 PRAME binding phage clones yielded 35 membrane target hits with 6 unique sequences. Clones with unique antibody sequences were chosen for further analysis.
(In general: ELISA stands for enzyme-linked immunosorbent assay.)
Regarding B1, the binding result is “binds”.

As to B2, the binding result is on record as “binds”.

As for B3, the binding result is “binds”.

Turning to B4, the binding result was “binds”.

B5: the binding result was “binds”.

For the molecule B6, the binding result is on record as “binds”.

A further experiment addresses T2, PRAME (Preferentially Expressed Antigen in Melanoma) on PRAME+ cells (human, UniProt P78395 1-509).
T2 construct: whole, on cells; Endogenous PRAME on the THP-1 human cell line; also called THP-1 cells
The experiment is described as follows: flow cytometry, titrated antibody on THP-1 cells. The source says:
MPA1 (Pankov et al., 2017), a rabbit anti-PRAME polyclonal antibody was included as reference for comparison.
On the technique in general: A flow cytometer gives signals particle by particle.
Turning to B7, the EC50 came out at 1.45 nM.

As a reminder, the EC50 is the concentration that produces a half-maximal response. Low readings indicate an effect from little substance, high ones a need for much substance.
